Common to all, as to assay: purified protein
Common to all, as to details: 37 °C

Substrate in data set [1]: NC(=O)C[C@H](N)C(=O)O
The format is biochemical, Wolinella succinogenes.

Substrate in data set [2]: NC(=O)CC[C@H](N)C(=O)O
Substrate in data set [3]: NC(=O)CC[C@H](N)C(=O)O
The format is biochemical, Wolinella succinogenes.

One may read the Km as the concentration of substrate that gives half-maximal velocity. As usually defined, the kcat is the maximal rate divided by the concentration of active sites. One may read the kcat/Km as the turnover number divided by the Michaelis constant.

B1: WoA-S121 (Wolinella succinogenes L-asparaginase) (Wolinella succinogenes DSM 1740) (protein)
chain: MAKPQVTILATGGTIAGSGESSVKSSYSAGAVTVDKLLAAVPAINDLATIKGEQISSIGSQEMTGKVWLKLAKRVNELLAQKETEAVIITHGTDTMEETAFFLNLTVKSQKPVVLVGAMRSGSSMSADGPMNLYNAVNVAINKASTNKGVVIVMNDEIHAAREATKLNTTAVNAFASPNTGKIGTVYYGKVEYFTQSVRPHTLASEFDISKIEELPRVDILYAHPDDTDVLVNAALQAGAKGIIHAGMGNGNPFPLTQNALEKAAKSGVVVARSSRVGSGSTTQEAEVDDKKLGFVATESLNPQKARVLLMLALTKTSDREAIQKIFSTY
notes: recombinant, pET28 vector, E. coli BL21-AI; 330 residues per protomer; tetramer (dimer of dimers)
On to B1, for which, in “purified protein [1]”, the Km was 21.7 ± 1.2 µM, the kcat was determined as 97.8 ± 1 s⁻¹ and the catalytic efficiency (kcat/Km) was 4.5e+06 ± 250000 M⁻¹ s⁻¹. Further, in “purified protein [2]”, the Km was found to be 380 ± 50 µM, the kcat worked out at 1.58 s⁻¹ and the kcat/Km is 4200 M⁻¹ s⁻¹.

B2: WoA-S121 (Wolinella succinogenes L-asparaginase) (Wolinella succinogenes DSM 1740; S121P) (protein)
chain: MAKPQVTILATGGTIAGSGESSVKSSYSAGAVTVDKLLAAVPAINDLATIKGEQISSIGSQEMTGKVWLKLAKRVNELLAQKETEAVIITHGTDTMEETAFFLNLTVKSQKPVVLVGAMRPGSSMSADGPMNLYNAVNVAINKASTNKGVVIVMNDEIHAAREATKLNTTAVNAFASPNTGKIGTVYYGKVEYFTQSVRPHTLASEFDISKIEELPRVDILYAHPDDTDVLVNAALQAGAKGIIHAGMGNGNPFPLTQNALEKAAKSGVVVARSSRVGSGSTTQEAEVDDKKLGFVATESLNPQKARVLLMLALTKTSDREAIQKIFSTY
notes: as for B1
As for B2, in the data set “purified protein [3]”, the Michaelis constant (Km) came out at 320 ± 20 µM, the kcat was 11.33 ± 0.11 s⁻¹ and the kcat/Km stood at 35300 ± 2240 M⁻¹ s⁻¹. Moreover, in “purified protein [1]”, the Km is 23.6 ± 1.1 µM, the turnover number (kcat) was 86.7 ± 0.8 s⁻¹ and the kcat/Km came out at 3.7e+06 ± 170000 M⁻¹ s⁻¹.
